± gives the standard deviation of the averaged measurements.
Test: total protein half-life in vivo (active degradation + dilution); higher = more stable protein
[1] = E. coli NCM3722 delta-clpP delta-lon delta-hslV, growth: N-lim chemostat, doubling time 6 h
[2] = E. coli NCM3722 delta-clpP, growth: N-lim chemostat, doubling time 6 h
[3] = E. coli NCM3722 delta-lon, growth: N-lim chemostat, doubling time 6 h
[4] = E. coli NCM3722 delta-smpB, growth: N-lim chemostat, doubling time 6 h
[5] = wild type E. coli NCM3722, growth: C-lim chemostat, doubling time 3 h
[6] = wild type E. coli NCM3722, growth: C-lim chemostat, doubling time 6 h
[7] = wild type E. coli NCM3722, growth: C-lim chemostat, doubling time 12 h
[8] = wild type E. coli NCM3722, growth: N-lim chemostat, doubling time 6 h
[9] = wild type E. coli NCM3722, growth: N-lim chemostat, doubling time 12 h
[10] = wild type E. coli NCM3722, growth: P-lim chemostat, doubling time 6 h
[11] = wild type E. coli NCM3722, growth: P-lim chemostat, doubling time 12 h
[12] = E. coli NCM3722 delta-hslV, growth: N-lim chemostat, doubling time 6 h

| Sequence | total protein half-life in vivo [1] | total protein half-life in vivo [2] | total protein half-life in vivo [3] | total protein half-life in vivo [4] | total protein half-life in vivo [5] | total protein half-life in vivo [6] | total protein half-life in vivo [7] | total protein half-life in vivo [8] | total protein half-life in vivo [9] | total protein half-life in vivo [10] | total protein half-life in vivo [11] | total protein half-life in vivo [12] |
| --- | --- | --- | --- | --- | --- | --- | --- | --- | --- | --- | --- | --- |
| MESWLIPAAPVTVVEEIKKSRFITMLAHTDGVEAAKAFVESVRAEHPDARHHCVAWVAGAPDDSQQLGFSDDGEPAGTAGKPMLAQLMGSGVGEITAVVVRYYGGILLGTGGLVKAYGGGVNQALRQLTTQRKTPLTEYTLQCEYHQLTGIEALLGQCDGKIINSDYQAFVLLRVALPAAKVAEFSAKLADFSRGSLQLLAIEE | 5.13 h | 3.99 ± 0.14 h | 3.84 ± 0.059 h | 2.87 ± 0.15 h | 2.93 ± 0.19 h | 4.62 ± 0.11 h | 15 h | 3.48 ± 0.22 h | 4.67 ± 0.14 h | 4.78 h | 7.73 ± 0.15 h | – |
| MESYSQNSNKLDFQHEARILNGIWLITALGLVATAGLAWGAKYIEITATKYDSPPMYVAIGLLLLCMYGLSKDINKINAAIAGVIYLFLLSLVAIVVASLVPVYAIIIVFSTAGAMFLISMLAGLLFNVDPGSHRFIIMMTLTGLALVIIVNAALMSERPIWIISCLMIVLWSGIISHGRNKLLELAGKCHSEELWSPVRCAFTGALTLYYYFIGFFGILAAIAITLVWQRHTRFFH | – | – | – | – | – | – | – | > 8 h | – | – | – | – |
| METLIAISRWLAKQHVVTWCVQQEGELWCANAFYLFDAQKVAFYILTEEKTRHAQMSGPQAAVAGTVNGQPKTVALIRGVQFKGEIRRLEGEESDLARKAYNRRFPVARMLSAPVWEIRLDEIKFTDNTLGFGKKMIWLRDSGTEQA | 5.46 ± 0.32 h | 5.48 ± 0.64 h | – | 4.81 ± 0.52 h | – | 6.11 ± 0.22 h | 13.5 ± 1.2 h | 5.11 ± 0.18 h | 9.39 ± 0.75 h | 5.48 ± 1.1 h | 12.5 ± 0.68 h | – |
| METPQPDKTGMHILLKLASLVVILAGIHAAADIIVQLLLALFFAIVLNPLVTWFIRRGVQRPVAITIVVVVMLIALTALVGVLAASFNEFISMLPKFNKELTRKLFKLQEMLPFLNLHMSPERMLQRMDSEKVVTFTTALMTGLSGAMASVLLLVMTVVFMLFEVRHVPYKMRFALNNPQIHIAGLHRALKGVSHYLALKTLLSLWTGVIVWLGLELMGVQFALMWAVLAFLLNYVPNIGAVISAVPPMIQVLLFNGVYECILVGALFLVVHMVIGNILEPRMMGHRLGMSTMVVFLSLLIWGWLLGPVGMLLSVPLTSVCKIWMETTKGGSKLAILLGPGRPKSRLPG [P0AGM0] | 6.64 ± 0.097 h | – | – | 5.16 h | – | 7.02 h | 11.5 ± 0.41 h | – | – | – | 13.6 h | – |
| MEWLVKKSCCNKQDNRHVLMLCDAGGAIKMIAEVKSDFAVKVGDLLSPLQNALYCINREKLHTVKVLSASSYSPDEWERQCKVAGKTQ | 5.09 ± 0.77 h | – | 3.35 h | 4.9 h | 2.04 ± 0.53 h | 4.32 h | 7.64 ± 1.4 h | – | 4.88 h | 4.39 h | 7.16 ± 1.1 h | 3.24 h |
| MEWSLTQNKLLAFHRLMRTDKPIGALLLLWPTLWALWVATPGVPQLWILAVFVAGVWLMRAAGCVVNDYADRKFDGHVKRTANRPLPSGAVTEKEARALFVVLVLISFLLVLTLNTMTILLSIAALALAWVYPFMKRYTHLPQVVLGAAFGWSIPMAFAAVSESVPLSCWLMFLANILWAVAYDTQYAMVDRDDDVKIGIKSTAILFGQYDKLIIGILQIGVLALMAIIGELNGLGWGYYWSILVAGALFVYQQKLIANREREACFKAFMNNNYVGLVLFLGLAMSYWHF [P0AGK1] | 1.5 ± 0.18 h | 1.13 h | 0.759 h | 1.45 ± 0.17 h | 1.27 ± 0.027 h | 1.92 ± 0.27 h | 2.32 ± 0.41 h | 1.29 ± 0.2 h | – | 2.18 ± 0.52 h | 2.85 h | 1.29 h |
| MFDFSKVVDRHGTWCTQWDYVADRFGTADLLPFTISDMDFATAPCIIEALNQRLMHGVFGYSRWKNDEFLAAIAHWFSTQHYTAIDSQTVVYGPSVIYMVSELIRQWSETGEGVVIHTPAYDAFYKAIEGNQRTVMPVALEKQADGWFCDMGKLEAVLAKPECKIMLLCSPQNPTGKVWTCDELEIMADLCERHGVRVISDEIHMDMVWGEQPHIPWSNVARGDWALLTSGSKSFNIPALTGAYGIIENSSSRDAYLSALKGRDGLSSPSVLALTAHIAAYQQGAPWLDALRIYLKDNLTYIADKMNAAFPELNWQIPQSTYLAWLDLRPLNIDDNALQKALIEQEKVAIMPGYTYGEEGRGFVRLNAGCPRSKLEKGVAGLINAIRAVR | 5.24 ± 1.1 h | 4.66 ± 0.39 h | 5.26 ± 0.077 h | 4.53 ± 0.058 h | 3.15 ± 0.095 h | 5.26 ± 0.26 h | 10.2 ± 2 h | 4.39 ± 0.095 h | 7.95 ± 0.93 h | 5.78 ± 0.25 h | 11 ± 1.4 h | 4.58 ± 0.52 h |
| MFDVLMYLFETYIHTEAELRVDQDKLEQDLTDAGFEREDIYNALLWLEKLADYQEGLAEPMQLASDPLSMRIYTPEECERLDASCRGFLLFLEQIQVLNLETREMVIERVLALDNAEFELDDLKWVILMVLFNIPGCENAYQQMEELLFEVNEGMLH [P0A828] | 5.9529 ± 0.00025 h | 0.182 h | 0.569 h | 0.365 h | – | – | 0.0972 h | 1.05 h | – | – | – | – |
| MFDYILSLGGTVFVPIIMIVIGLIFRIPWLQAIKAGVTVGIGFVGMGLVIVMAIDSLSPPIKVMIERFGLALHVFDVGAGPASGVGYATAIGAMIIPVIFLLNVAMLVTRLTKTMNVDIYNYWHYAITGTVVQLMTGSLIYGVLGAICHAALSLKMADWTAKRVQNIVGLEGISIPQGYGSSSVPLFVLLDAIYEKIPFMKGRNIDAQEIQKRYGMVGDPVIIGVVLGLIFGLAAGEGFKGCASLMITVAAIMVLFPRMIRLIVEGLLPISDGARKFFQKYFKGREVYIGLDTAVTLGHPTTIAVGLLLIPIMLILASILPGNKVLPLADLPVAPFFICMATVIHRGDLVRTLISGVIVMITVLLIATQFAPYFTEMALKGGFSFAGESAQISALSVGNMFGWSISELMSLGIIGVVVAVGIVASVVLFLRKRELSE | – | – | – | 7.4 h | – | 6 ± 0.68 h | – | – | – | – | – | – |
| MFEIHPVKKVSVVIPVYNEQESLPELIRRTTTACESLGKEYEILLIDDGSSDNSAHMLVEASQAENSHIVSILLNRNYGQHSAIMAGFSHVTGDLIITLDADLQNPPEEIPRLVAKADEGYDVVGTVRQNRQDSWFRKTASKMINRLIQRTTGKAMGDYGCMLRAYRRHIVDAMLHCHERSTFIPILANIFARRAIEIPVHHAEREFGESKYSFMRLINLMYDLVTCLTTTPLRMLSLLGSIIAIGGFSIAVLLVILRLTFGPQWAAEGVFMLFAVLFTFIGAQFIGMGLLGEYIGRIYTDVRARPRYFVQQVIRPSSKENE | 5.758 ± 0.026 h | – | 6.156 ± 0.045 h | 6.14 ± 0.12 h | 2.84 ± 0.4 h | 6.77 ± 1.7 h | 11.6 ± 0.56 h | 6.21 ± 0.57 h | 12.6 ± 0.58 h | 6.08 ± 0.52 h | 12.1 ± 0.46 h | 6.356 ± 0.027 h |

— the supplement of paper PMC11246515
